Sequences and labels used below:
B1: 3(,4) X 10 kDa PEG NBN106-N95K (ligand)
chain: ARATDARGCRLRSQLVPVSALGLGHSSDELIRFRFCSGSCRRARSPHDLSLASLLGAGALRSPPGSRPISQPCCRPTRYEAVSFMDVKSTWRTVDHLSATACGCLG
modifications: average of 3.3 10 kDa PEG (SPA-PEG) per dimer: on both amino-terminal amino acids and on one or both Lys95 (PEGylated amino acids 1,1,95 (,95))
B2: rat mutated neublastin NBN106-N95K (non-PEGylated) (ligand)
chain: B1 chain
B3: 4 X 10 kDa PEG NHN106-N95K: homodimer of NBN106-N95K conjugated to four 10 kDa PEG moieties (conjugate)
chain: B1 chain
B4: 3 X 10 kDa PEG NBN106-N95K: homodimer of NBN106-N95K conjugated to three 10 kDa PEG moieties (conjugate)
chain: B1 chain
B5: 2 X 20 kDa Branched PEG NBN106-N95K: NBN106-N95K dimer with two branched 20 kDa PEGs at amino acids 1,95 (conjugate)
chain: B1 chain
B6: 1 X 20 kDa PEG-NBN104 (CHO): CHO derived NBN104 dimer glycosylated at 95,95 with one 20 kDa PEG at amino acid 1 (conjugate)
chain: AAGARGCRLRSQLVPVRALGLGHRSDELVRFRFCSGSCRRARSPHDLSLASLLGAGALRPPPGSRPVSQPCCRPTRYEAVSFMDVNSTWRTVDRLSATACGCLG
B7: 2 X 20 kDa PEG-NBN104 (CHO): CHO derived NBN104 dimer glycosylated at 95,95 with two 20 kDa PEGs at amino acids 1,1 (conjugate)
chain: B6 chain
B8: 3 X 10 kDa PEG-WT/ N95K-NBN106: wild-type/N95K NBN106 heterodimer with three 10 kDa PEGs at amino acids 1,1,95 (conjugate)
chain 1: B1 chain with K88N
chain 2: B1 chain
B9: 2 X 20 kDa PEG-NBN: E. coli derived NBN113 dimer with two 20 kDa PEGs at amino acids 1,1 (conjugate)
chain: AGTRSSRARATDARGCRLRSQLVPVSALGLGHSSDELIRFRFCSGSCRRARSPHDLSLASLLGAGALRSPPGSRPISQPCCRPTRYEAVSFMDVNSTWRTVDHLSATACGCLG
B10: 3 X 10 kDa PEG-WT/N95K-NBN106 (ligand)
chain 1: B1 chain with K88N
chain 2: B1 chain
modifications: 10 kDa PEG on the amino-terminal amino acid and on Lys95; 10 kDa PEG on the amino-terminal amino acid
B11: 4 X 5 kDa PEG NBN106-N95K (ligand)
chain: B1 chain
modifications: 5 kDa PEG on the amino-terminal amino acid and on Lys95 of each chain (PEGylated amino acids 1,1,95,95)
B12: 3 X 10 kDa PEG NBN106-N95K (ligand)
chain: B1 chain
modifications: three 10 kDa PEG per dimer: on both amino-terminal amino acids and on one Lys95 (PEGylated amino acids 1,1,95)
B13: 2 X 10 kDa PEG-NBN (ligand)
chain: B9 chain
modifications: 10 kDa PEG on amino acid 1 of each chain (PEGylated amino acids 1,1)
B14: 1 X 20 kDa Branched PEG-NBN (ligand)
chain: B9 chain
modifications: one 20 kDa branched PEG per dimer, on amino acid 1 of one chain (PEGylated amino acids: 1)
B15: 2 X 20 kDa PEG-NBN (ligand)
chain: B9 chain
modifications: 20 kDa PEG on amino acid 1 of each chain (cell printed '1,1 1')
B16: 2 X 5 kDa PEG-NBN (ligand)
chain: B9 chain
modifications: 5 kDa PEG on amino acid 1 of each chain (PEGylated amino acids 1,1)

Residue numbers refer to the chain shown, from its start. Numbers in names are those of the source. Where no limit is named, active and inactive come without a cut-off here.

This is an account of results in patent publication EP2246362B1, “Polymer conjugates of mutated neublastin” (Biogen Idec MA Inc., priority 2003, dated 2004).

T2 sequence (P35546 29-1115): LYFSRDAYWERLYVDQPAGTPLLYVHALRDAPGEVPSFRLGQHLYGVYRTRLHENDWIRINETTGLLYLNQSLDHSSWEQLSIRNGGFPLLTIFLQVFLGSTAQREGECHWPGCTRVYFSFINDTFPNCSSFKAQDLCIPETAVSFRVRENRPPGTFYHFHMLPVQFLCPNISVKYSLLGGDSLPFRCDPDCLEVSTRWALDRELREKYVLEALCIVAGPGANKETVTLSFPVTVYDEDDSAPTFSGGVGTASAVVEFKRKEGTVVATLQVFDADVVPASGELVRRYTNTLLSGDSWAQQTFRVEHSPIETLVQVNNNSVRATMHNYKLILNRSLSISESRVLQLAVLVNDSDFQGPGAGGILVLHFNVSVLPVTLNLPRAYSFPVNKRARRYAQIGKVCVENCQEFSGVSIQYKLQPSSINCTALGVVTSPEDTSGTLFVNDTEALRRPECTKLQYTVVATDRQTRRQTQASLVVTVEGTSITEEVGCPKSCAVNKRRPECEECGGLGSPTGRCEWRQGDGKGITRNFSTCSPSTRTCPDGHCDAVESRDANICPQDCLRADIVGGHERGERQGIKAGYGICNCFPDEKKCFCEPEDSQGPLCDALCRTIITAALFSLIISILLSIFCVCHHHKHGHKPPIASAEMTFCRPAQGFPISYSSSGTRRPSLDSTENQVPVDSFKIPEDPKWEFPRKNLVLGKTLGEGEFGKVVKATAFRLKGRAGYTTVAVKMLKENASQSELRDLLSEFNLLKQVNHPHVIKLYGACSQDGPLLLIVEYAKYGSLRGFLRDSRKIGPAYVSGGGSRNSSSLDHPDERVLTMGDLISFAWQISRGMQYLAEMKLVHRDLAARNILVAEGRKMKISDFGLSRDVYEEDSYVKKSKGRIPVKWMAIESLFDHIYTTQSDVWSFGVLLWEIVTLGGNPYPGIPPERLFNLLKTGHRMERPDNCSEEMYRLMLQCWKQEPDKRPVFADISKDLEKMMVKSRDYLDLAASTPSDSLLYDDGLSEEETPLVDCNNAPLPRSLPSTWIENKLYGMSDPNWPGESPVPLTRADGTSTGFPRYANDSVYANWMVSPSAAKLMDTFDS
T2 sequence (O35118 29-397): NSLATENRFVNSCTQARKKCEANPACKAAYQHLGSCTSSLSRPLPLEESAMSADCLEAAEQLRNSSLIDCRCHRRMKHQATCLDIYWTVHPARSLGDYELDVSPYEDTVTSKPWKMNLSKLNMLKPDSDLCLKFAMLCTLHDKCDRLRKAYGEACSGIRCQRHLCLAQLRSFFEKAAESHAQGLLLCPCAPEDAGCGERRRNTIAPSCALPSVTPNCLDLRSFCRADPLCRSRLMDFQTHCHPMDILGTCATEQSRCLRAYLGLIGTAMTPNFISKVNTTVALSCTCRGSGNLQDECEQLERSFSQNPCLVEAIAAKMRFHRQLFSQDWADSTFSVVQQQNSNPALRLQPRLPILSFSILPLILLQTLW

For one series, the target named is T1, c-Ret on NB41A3-mRL3 cells (UniProt P35546 29-1115, limits assumed). The series is described as follows: cell-based or functional assay.
T1 sequence (P35546 29-1115 limits assumed): as the sequence (P35546 29-1115) above
Details: not given
B1: the “specific activity in the KIRA ELISA” value came to 10 nM.

Consider B2, for which the “specific activity in the KIRA ELISA” value was about 10 nM.

The target in another series is T1, c-Ret on NB41A3-mRL3 cells. The series is described as follows: cell-based or functional assay.
Details: not given
The source holds these as a separate data set.
Turning to “2 X 20 kDa PEG-NBN104 (CHO) (from UniProt Q5T4W7 117-220) (ligand)”, the KIRA: ∼EC50 came out at 1 nM and the KIRA: ∼Max Efficacy vs WT turned out to be 105%.

Regarding “NBN104 (CHO) (from UniProt Q5T4W7 117-220) (ligand)”, the KIRA: ∼EC50 came out at 0.7 nM and the KIRA: ∼Max Efficacy vs WT is 90%.

Turning to “BSA-conjugated neublastin (monosubstituted product) (from UniProt P02769 25-607)”, the IC50 in the KIRA ELISA lay in the range of 3 to 6 nM.

Consider “1 X 20 kDa PEG-NBN104 (CHO) (from UniProt Q5T4W7 117-220) (ligand)”, for which the KIRA: ∼EC50 came out at 0.3 nM and the KIRA: ∼Max Efficacy vs WT worked out at 110%.

A further series addresses T2, c-Ret (Mus musculus, UniProt O35118+P35546).
T2 construct: NB41A3-mRL3 cells, an adherent murine neuroblastoma cell line which expresses Ret and GFRα3; endogenous in cells; host or cells: NB41A3-mRL3 (murine neuroblastoma)
The series is described as follows: Kinase Receptor Activation (KIRA) ELISA: neublastin dependent phosphorylation of c-Ret in NB41A3-mRL3 cells.
Details: not given
Format: cell-based, murine. Here is the method:
The potency of PEGylated mutated rat neublastin was measured using neublastin dependent activation/ phosphorylation of c-Ret as a reporter for neublastin activity in an ELISA that was specific for the presence of phosphorylated RET. NB41A3-mRL3 cells, an adherent murine neuroblastoma cell line which expresses Ret and GFRα3, were plated at 2 x 10^5 cells per well in 24-well plates in Dulbecco's modified eagle medium (DMEM), supplemented with 10 % fetal bovine serum, and cultured for 18 h at 37 °C and 5 % CO2.
The cells were washed with PBS, and treated with serial dilutions of neublastin in 0.25 mL of DMEM for 10 min at 37°C and 5 % CO2. Each sample was analyzed in duplicate. The cells were washed with 1 mL of PBS, and lysed for 1h at 4 °C with 0.30 mL of 10 mM Tris HC1, pH 8.0, 0.5 % Nonidet P40, 0.2 % sodium deoxycholate, 50 mM NaF, 0.1 mM Na3 VO4,1 mM phenylmethylsulfonyl fluoride with gently rocking the plates. The lysates were further agitated by repeated pipetting and 0.25 mL of sample was transferred to a 96-well ELISA plate that had been coated with 5 µg/mL of anti-Ret mAb (AA.GE7.3) in 50 mM carbonate buffer, pH 9.6 at 4°C for 18 h, and blocked at room temperature for one hour with block buffer (20 mM Tris HC1 pH 7.5, 150 mM NaCl, 0.1% Tween-20 (TBST) containing 1 % normal mouse serum and 3 % bovine serum albumin).
After a 2 h incubation at room temperature, the wells were washed 6-times with TBST. Phosphorylated Ret was detected by incubating the wells at room temperature for 2 h with 2 µg/mL of horseradish peroxidase (HRP)-conjugated anti-phosphotyrosine 4G10 antibody in block buffer, washing 6-times with TBST, and measuring HRP activity at 450 nm with a colorometric detection reagent. The absorbance values from wells treated with lysate or with lysis buffer were measured and the background corrected signal was plotted as a function of the concentration of neublastin present in the activation mixture.
Neublastin activity was determined by its ability to stimulate c-Ret phosphorylation in NB41A3-mRL3 cells using the KIRA ELISA described in Example 3. Phosphorylated Ret was detected by incubating (2 hours) the captured receptor with HRP-conjugated phosphotyrosine antibody (4G10; 0.2 µg per well). Following the incubation, the wells were washed six times with TBST, and the HRP activity detected at 450 nm with a colorimetric assay. The absorbance values from wells treated with lysate or with lysis buffer alone were measured, background corrected, and the data plotted as a function of the concentration of neublastin present in the activation mixture.
(An ELISA detects its analyte on a solid surface through an enzyme-linked reagent.)
For the molecule B3, the “fold less potent than non-mutated (wild-type) NBN113 in activating Ret” value is reported as “approximately 10 fold”.

The same series, now with this note: compared with wild-type NBN113 / mature form.
With B4, the “activity / potency in the KIRA ELISA (in words)” value was “fully active”.

In the case of B3, the “activity / potency in the KIRA ELISA (in words)” value is given as “reduced potency”.

Staying with this series, now noted: estimated EC50, NB41A3-mRL3 cells.
As to B5, the “KIRA: ~EC50” value was “inactive”.

As usually defined, the EC50 is the concentration needed to bring the measured effect to its halfway point. B6: the EC50 is 0.3 nM.

On to B7, for which the EC50 is 1 nM.

The same series, now with this note: relative to wild-type, NB41A3-mRL3 cells.
Turning to B5, the “KIRA: ~Max Efficacy vs WT” value was “inactive”.

B6: the “KIRA: ~Max Efficacy vs WT” value was determined as 110%.

With B7, the “KIRA: ~Max Efficacy vs WT” value was found to be 105%.

Tested on in a further series: not given
Assay: not given
Also on record: species or system mice. The settings on record: mouse, in vivo, sc. The source says:
The pharmokinetic properties of various PEGylated and non-PEGylated mutated neublastin products in rat and mouse models were examined (see Table 8 for summary of results). The analysis of the PEGylated […] samples are complicated by the presence of adducts comprising 2, 3 and 4 PEGs per molecule, which each will display a different PK profile. In early PK studies, mice were used to facilitate screening through a variety of candidates and routes of administration. […] This difference in bioavailability was particularly pronounced following i.p. administration. Levels in mice reached 1600 ng/mL after 7 hr and remained at 400 ng/mL after 24 hr. In contrast, rat levels were constant at 100 ng/mL for 4-48 hr. Two surprising and unexpected results emerged from the PK studies summarized in Table 8: 1) PEGylation of the amino-terminal amino acids of non-glycosylated neublastin was not sufficient to increase serum exposure substantially, and 2) PEGylation of the amino-terminal amino acid(s) of neublastin together with modification (e.g. PEGylation or glycosylation) of amino acid 95 was sufficient to increase serum exposure substantially.
B4: the “Exposure in Mice After s.c. Administration” value is reported as “++”.

For B8, the “Exposure in Mice After s.c. Administration” value is reported as “++”.

As to B3, the “Exposure in Mice After s.c. Administration” value is reported as “++”.

B5: the “Exposure in Mice After s.c. Administration” value was “++”.

As for B9, the “Exposure in Mice After s.c. Administration” value is “+” and the “serum exposure after s.c. administration (in words)” value (from here on “serum exposure”) is reported as “low-to-moderate serum exposure”.

Take B6: the “Exposure in Mice After s.c. Administration” value was “++” and the “serum exposure” value is given as “high serum exposure”.

In the case of B7, the “Exposure in Mice After s.c. Administration” value is given as “++” and the “serum exposure” value is reported as “high serum exposure”.

The next series deals with T1, c-Ret on NB41A3-mRL3 cells. The series is described as follows: cell-based or functional assay.
Details: not given
This is another data set of the same source.
As to B10, the “KIRA: ∼EC50” value is about 0.7 nM and the “KIRA: ∼Max Efficacy vs WT” value was about 115%.

Take B11: the “KIRA: ∼EC50” value was about 1 nM and the “KIRA: ∼Max Efficacy vs WT” value was about 80%.

In the case of B1, the “KIRA: ∼EC50” value was about 1.6 nM and the “KIRA: ∼Max Efficacy vs WT” value was about 90%.

On to B12, for which the “KIRA: ∼EC50” value is about 0.8 nM and the “KIRA: ∼Max Efficacy vs WT” value is about 100%.

B13: the “KIRA: ∼EC50” value is about 0.2 nM and the “KIRA: ∼Max Efficacy vs WT” value is about 72%.

Turning to B14, the “KIRA: ∼EC50” value is about 0.2 nM and the “KIRA: ∼Max Efficacy vs WT” value was about 83%.

On to B15, for which the “KIRA: ∼EC50” value is about 0.6 nM and the “KIRA: ∼Max Efficacy vs WT” value was about 80%.

On to B16, for which the “KIRA: ∼EC50” value was about 0.2 nM and the “KIRA: ∼Max Efficacy vs WT” value is about 105%.
